Assay results taken from patent publication US20170319643A1.

Target: elastase (porcine pancreas, Sigma Aldrich) (porcine) (UniProt P00772)
Assay: cell-based or functional assay

Sequence of alpha-1-antitrypsin enriched native human HDL (P01009 25-418): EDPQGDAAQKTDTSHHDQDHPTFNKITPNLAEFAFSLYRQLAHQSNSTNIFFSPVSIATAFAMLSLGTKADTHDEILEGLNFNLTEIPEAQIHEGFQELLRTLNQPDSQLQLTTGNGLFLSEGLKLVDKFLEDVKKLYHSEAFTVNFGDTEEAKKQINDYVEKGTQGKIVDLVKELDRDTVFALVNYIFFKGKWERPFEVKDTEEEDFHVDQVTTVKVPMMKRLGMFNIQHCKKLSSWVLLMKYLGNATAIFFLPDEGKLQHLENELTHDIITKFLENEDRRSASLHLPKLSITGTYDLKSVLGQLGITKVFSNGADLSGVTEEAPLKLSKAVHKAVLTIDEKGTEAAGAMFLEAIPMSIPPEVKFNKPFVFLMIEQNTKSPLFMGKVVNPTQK
Sequence of elastase (porcine pancreas, Sigma Aldrich) (porcine) (P00772 27-266): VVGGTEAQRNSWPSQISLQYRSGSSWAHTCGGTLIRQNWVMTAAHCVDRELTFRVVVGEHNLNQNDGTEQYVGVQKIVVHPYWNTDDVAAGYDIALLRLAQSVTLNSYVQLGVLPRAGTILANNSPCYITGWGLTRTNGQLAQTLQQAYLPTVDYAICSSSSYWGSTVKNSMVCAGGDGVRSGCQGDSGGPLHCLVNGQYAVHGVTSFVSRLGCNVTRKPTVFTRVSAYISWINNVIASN

## alpha-1-antitrypsin enriched native human HDL (from UniProt P01009 25-418)
  elastase induced TNF-α production by J774 macrophages, change compared to PBS pretreatment: -97%
